We go through one molecule from US20220228164A1, “ENGINEERED ANTIGEN PRESENTING CELLS” (Neogene Therapeutics B.V., priority 2021, published 2022).

This test concerns TCR transduced Jurkat cells. The test can be described thus: Co-culture of TMG-expressing immortalized B cells with TCR transduced Jurkat cells, CD69 by flow cytometry (Example 5). It is filed as cell-based, human. The settings on record: 1:1 E:T, 20 hours co-culture. An excerpt:
B cells from healthy donors are isolated from PBMCs using magnetic-bead enrichment using protocols known to the skilled artisan and subsequently immortalized either by EBV infection or transduction with BCL-6/BCL-xL with methods known to the skilled artisan and as described herein (Example 10). Non-EBV immortalized B cells are either transduced with BCL-6/BCL-xL alone or co-transduced with CD40L transgene. Retroviral supernatant for B cell transduction is produced using methods known to a person skilled in the art and as described in this invention (Example 10). B cells are retrovirally transduced with different TMG constructs. The example presents different TMG designs encoding varying numbers of 25mer epitopes (1, 3, 12 or 40 epitopes) with or without LAMP1 signaling and transmembrane sequences. 96 hours after transduction, TMG-expressing B cells are enriched based on puromycin resistance using protocols described in the art and this invention (Example 10). In brief, BCL-6/BCL-xL immortalized B cells are cultured in complete B cell medium (RPMI1640 medium supplemented with 10% (v/v) Fetal Calf Serum (FCS), 1% (v/v) Penicillin/Streptomycin (P/S), 1% (v/v) Sodium Pyruvate, 1% (v/v) Non-essential amino acids, 1% (v/v) Glutamax, 50 nM 2-Mercaptoethanol) containing rh-IL-21 (50 ng/mL) and 1 ug/ml puromycin and at a density of 200,000-250,000 cells/ml for 96 hours. […]

B1: CD40L transgene: hCD40L transgene expressed in BCL-6/BCL-xL immortalized B cells (protein)
DNA: MIETYNQTSPRSAATGLPISMKIFMYLLTVFLITQMIGSALFAVYLHRRLDKIEDERNLHEDFVFMKTIQRCNTGERSLSLLNCEEIKSQFEGFVKDIMLNKEETKKENSFEMQKGDQNPQIAAHVISEASSKTTSVLQWAEKGYYTMSNNLVTLENGKQLTVKRQGLYYIYAQVTFCSNREASSQAPFIASLCLKSPGRFERILLRAANTHSSAKPCGQQSIHLGGVFELQPGASVFVNVTDPSQVSHGTGFTSFGLLKL
As for B1, the “MHC-class II restricted antigen-presentation (CD69 expression by TCR transduced Jurkat cells)” value is listed as “can enhance”.
